Experimental findings from patent publication US20250179155A1 (VANDERBILT UNIVERSITY, published 2025) are described below.

Assay [1] addresses full-length TcdB (TcdB1-2366), VPI10463 (Clostridioides difficile strain VPI10463, UniProt P18177 1-2366). Kind of assay: cell-based or functional assay.
Assay [2] deals with T1, TcdB-CROPs (TcdB1827-2366) (Clostridioides difficile strain VPI10463, UniProt P18177 1827-2366).
T1 construct: range 1827-2366; also called TcdB CROPS domain; TcdBX-Y
Kind of assay: ELISA on isolated toxin domains (domain specificity). (In general: In an ELISA, binding on a coated surface is turned into a signal by an enzyme label.)

The target of assay [3] is T2, full-length TcdA (TcdA1-2710) (Clostridioides difficile strain VPI10463, UniProt P16154 1-2710).
T2 construct: range 1-2710; also called rTcdA; purified, recombinant TcdA
T2 sequence (P16154 whole entry): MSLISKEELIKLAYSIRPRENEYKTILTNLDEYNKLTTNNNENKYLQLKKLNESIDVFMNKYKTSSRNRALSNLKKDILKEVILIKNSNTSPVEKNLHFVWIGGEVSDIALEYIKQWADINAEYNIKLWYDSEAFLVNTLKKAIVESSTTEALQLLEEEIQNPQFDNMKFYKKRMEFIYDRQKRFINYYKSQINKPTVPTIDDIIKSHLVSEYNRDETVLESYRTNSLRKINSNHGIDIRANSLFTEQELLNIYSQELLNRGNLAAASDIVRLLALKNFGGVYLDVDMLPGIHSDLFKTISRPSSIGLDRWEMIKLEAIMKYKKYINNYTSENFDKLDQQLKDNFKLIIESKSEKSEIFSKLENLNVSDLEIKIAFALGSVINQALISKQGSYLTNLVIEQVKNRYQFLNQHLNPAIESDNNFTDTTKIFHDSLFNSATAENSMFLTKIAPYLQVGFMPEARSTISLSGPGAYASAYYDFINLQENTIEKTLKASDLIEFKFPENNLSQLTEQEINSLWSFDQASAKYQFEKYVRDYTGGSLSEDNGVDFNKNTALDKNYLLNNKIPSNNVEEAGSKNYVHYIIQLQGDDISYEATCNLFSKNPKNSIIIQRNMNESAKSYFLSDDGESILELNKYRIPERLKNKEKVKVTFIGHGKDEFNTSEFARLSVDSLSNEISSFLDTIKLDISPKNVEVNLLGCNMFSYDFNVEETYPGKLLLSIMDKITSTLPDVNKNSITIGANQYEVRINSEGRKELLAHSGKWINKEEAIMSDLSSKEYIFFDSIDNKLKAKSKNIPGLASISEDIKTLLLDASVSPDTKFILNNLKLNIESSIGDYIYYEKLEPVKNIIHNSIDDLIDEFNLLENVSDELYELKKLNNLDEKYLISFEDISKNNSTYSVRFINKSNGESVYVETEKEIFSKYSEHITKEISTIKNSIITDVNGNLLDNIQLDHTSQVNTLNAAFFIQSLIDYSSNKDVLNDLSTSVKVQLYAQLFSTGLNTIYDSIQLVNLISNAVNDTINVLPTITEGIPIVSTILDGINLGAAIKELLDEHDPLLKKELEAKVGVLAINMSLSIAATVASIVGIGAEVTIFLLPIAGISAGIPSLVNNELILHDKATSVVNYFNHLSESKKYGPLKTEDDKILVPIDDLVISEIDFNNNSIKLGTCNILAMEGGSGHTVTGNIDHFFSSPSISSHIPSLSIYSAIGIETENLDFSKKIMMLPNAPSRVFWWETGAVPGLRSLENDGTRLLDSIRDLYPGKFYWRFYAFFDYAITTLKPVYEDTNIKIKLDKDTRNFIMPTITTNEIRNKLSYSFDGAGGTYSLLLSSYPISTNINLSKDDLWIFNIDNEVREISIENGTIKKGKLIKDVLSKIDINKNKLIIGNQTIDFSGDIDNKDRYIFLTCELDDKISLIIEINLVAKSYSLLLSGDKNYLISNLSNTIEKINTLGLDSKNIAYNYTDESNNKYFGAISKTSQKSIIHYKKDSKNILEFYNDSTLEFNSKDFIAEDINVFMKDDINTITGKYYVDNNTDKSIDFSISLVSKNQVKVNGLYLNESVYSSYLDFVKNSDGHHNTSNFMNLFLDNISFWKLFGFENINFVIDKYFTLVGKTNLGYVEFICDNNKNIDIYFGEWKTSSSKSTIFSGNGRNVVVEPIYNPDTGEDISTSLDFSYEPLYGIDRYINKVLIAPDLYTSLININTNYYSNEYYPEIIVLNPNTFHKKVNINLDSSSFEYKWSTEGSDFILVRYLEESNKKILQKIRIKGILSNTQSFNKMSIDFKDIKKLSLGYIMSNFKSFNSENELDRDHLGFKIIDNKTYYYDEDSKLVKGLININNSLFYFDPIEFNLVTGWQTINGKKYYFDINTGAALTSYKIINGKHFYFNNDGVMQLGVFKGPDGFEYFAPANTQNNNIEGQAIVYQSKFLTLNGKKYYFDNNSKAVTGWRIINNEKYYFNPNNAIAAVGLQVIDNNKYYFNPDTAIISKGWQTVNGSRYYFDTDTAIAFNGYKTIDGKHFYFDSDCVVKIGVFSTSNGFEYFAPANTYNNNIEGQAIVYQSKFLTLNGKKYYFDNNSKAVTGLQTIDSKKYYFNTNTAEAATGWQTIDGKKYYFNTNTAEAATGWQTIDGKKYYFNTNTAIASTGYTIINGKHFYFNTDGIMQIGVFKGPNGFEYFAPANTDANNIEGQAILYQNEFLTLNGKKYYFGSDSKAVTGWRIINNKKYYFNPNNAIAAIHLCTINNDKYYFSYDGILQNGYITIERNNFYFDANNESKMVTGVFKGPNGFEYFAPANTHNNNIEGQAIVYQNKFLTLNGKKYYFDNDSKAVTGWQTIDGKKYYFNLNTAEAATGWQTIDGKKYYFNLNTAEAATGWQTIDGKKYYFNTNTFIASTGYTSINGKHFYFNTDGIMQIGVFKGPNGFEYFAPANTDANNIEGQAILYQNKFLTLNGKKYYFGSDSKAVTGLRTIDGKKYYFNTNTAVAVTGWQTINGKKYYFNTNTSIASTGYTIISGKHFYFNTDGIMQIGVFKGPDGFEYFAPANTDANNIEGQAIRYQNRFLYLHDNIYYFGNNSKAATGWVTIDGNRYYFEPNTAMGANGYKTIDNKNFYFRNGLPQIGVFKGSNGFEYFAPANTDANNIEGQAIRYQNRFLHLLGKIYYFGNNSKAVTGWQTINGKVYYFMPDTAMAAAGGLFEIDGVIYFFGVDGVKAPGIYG
Kind of assay: sandwich ELISA, capture A2B10, biotinylated detection A1A6.

The target in assay [4] is T2, full-length TcdA (TcdA1-2710). Kind of assay: cell-based or functional assay.
The target in another assay is T3, TcdA-GTD (TcdA1-542) (Clostridioides difficile strain VPI10463, UniProt P16154 1-542).
T3 construct: range 1-542; also called TcdA glucosyltransferase domain
T3 sequence (P16154 1-542 limits assumed): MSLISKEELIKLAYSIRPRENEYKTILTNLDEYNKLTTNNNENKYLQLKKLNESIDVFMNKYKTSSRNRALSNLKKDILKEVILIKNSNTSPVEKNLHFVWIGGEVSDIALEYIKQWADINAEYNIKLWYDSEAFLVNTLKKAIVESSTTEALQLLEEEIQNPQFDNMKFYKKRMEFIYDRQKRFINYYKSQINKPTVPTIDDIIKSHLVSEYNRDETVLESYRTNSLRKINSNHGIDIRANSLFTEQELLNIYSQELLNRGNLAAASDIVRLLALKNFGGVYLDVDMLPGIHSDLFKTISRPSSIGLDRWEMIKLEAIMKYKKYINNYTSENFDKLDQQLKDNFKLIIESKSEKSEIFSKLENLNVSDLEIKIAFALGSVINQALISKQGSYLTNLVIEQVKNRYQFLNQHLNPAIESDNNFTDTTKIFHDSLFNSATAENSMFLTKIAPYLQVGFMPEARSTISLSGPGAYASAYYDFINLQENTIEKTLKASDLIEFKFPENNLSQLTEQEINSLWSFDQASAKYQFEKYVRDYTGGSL
Put plainly: ELISA-like screen of clone lysates on isolated domains.

Another assay has as its target T4, TcdA1-1832 (Clostridioides difficile strain VPI10463, UniProt P16154 1-1832).
T4 construct: range 1-1832; also called TcdA1-1832 (no CROPs domain)
Put plainly: negative stain EM with single particle averaging.

In a further assay the target is T5, TcdA1-1809 (Clostridioides difficile strain VPI10463, UniProt P16154 1-1809).
T5 construct: range 1-1809
Put plainly: ELISA on isolated toxin domains (domain specificity).

The target of assay [5] is T2, full-length TcdA (TcdA1-2710). Kind of assay: sandwich ELISA on filtered culture supernatant (VPI10463), FIG. 3J.

T1 sequence (P18177 1827-2366 limits assumed): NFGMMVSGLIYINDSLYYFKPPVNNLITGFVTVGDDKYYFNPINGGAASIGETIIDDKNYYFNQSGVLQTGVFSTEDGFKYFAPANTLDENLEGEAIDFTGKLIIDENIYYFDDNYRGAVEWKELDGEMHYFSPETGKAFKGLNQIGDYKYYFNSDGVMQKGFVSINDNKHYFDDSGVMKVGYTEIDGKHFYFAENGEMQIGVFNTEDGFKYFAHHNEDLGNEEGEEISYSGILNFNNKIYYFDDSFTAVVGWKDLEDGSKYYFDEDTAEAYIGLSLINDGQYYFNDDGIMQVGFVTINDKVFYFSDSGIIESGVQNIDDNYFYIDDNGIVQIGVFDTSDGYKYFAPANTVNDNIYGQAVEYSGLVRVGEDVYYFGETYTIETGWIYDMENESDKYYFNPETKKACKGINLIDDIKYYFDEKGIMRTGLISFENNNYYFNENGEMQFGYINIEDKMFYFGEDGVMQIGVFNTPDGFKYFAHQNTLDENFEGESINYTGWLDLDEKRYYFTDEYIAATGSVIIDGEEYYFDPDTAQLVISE

B1: B1A11 (VHH)
VHH: QVQLQESGGGVVQPGGSLRLTCTSSRSINIYVAMGWYRQAPGKQRERVATAHKDGGTRYSDSVKGRFTISRDDDKNTVYLQMNNLEPGDTAVYYCNAFGSSAWGQGTQVTVSS
As for B1, in assay [1], the “EC50 (nM), TcdB neutralization, Vero cells” value was found to be 38.4 nM. Moreover, the binding result in assay [2] was “binds”.

B2: B2F11 (VHH)
VHH: QVQLQESGGGLVQAGGSLTLSCTASGFTFSNYVMSWYRQAPGKEREWVASVSESGQSRTYADSVKGRFTISRDNTNFSVYLQMNNLNSEDTAVYYCNTGSRTYGARYWGQGTQVTVSS
With B2, the “EC50 (nM), TcdB neutralization, Vero cells” value in assay [1] amounted to 15.6 nM. In assay [2], the binding result was “binds”.

B3: A1A6 (VHH)
VHH: QVQLQESGGGSVQAGGSLRLSCAASGFIDDDYAIGWFRQAPGKEREGISCISSSNGKIHYADSVKGRFTISEDIAKKTVYLQMNFLKPEDTAVYYCAAETRGWSYCSGYGWSRYKYWGQGTQVTVSS
notes: also called Nb A1A6; A1A6-Avi
As to B3, in assay [3], the binding result is “binds”.

B4: A1G4 (VHH)
VHH: QVQLQESGGGLVQAGGSLRLSCAVSGRTLNSYAMGWFRQALGKEREFVAGISRAGGMTRYTDSVKGRFTISRDDAKNTVYLQMNSLKPDDTAVYSCAASFALVDSAGAYDYWGQGTQVTVSS
On to B4, for which, in assay [4], the “EC50 (nM), TcdA neutralization, T84 cells” value is 844 nM and the “EC50 (nM), TcdA neutralization, Vero cells” value worked out at 8.5 nM. Further, in the assay with TcdA-GTD (TcdA1-542), the binding result is “no binding”.

B5: A2G5 (VHH)
VHH: QVQLQESGGGLVQAGGSLRLSCAVSGRTLSSYAMGWFRQALGKEREFVAGISRGGGMTRYTDSVKGRFTISRDDAKNTVYLQMNSLKPDDTAVYSCAASYALIDMSSAYDYWGQGTQVTVSS
For the molecule B5, the “EC50, TcdA neutralization, T84 cells” value in assay [4] was more than 10000 nM. Further, the binding result with TcdA-GTD (TcdA1-542) is recorded as “no binding”.

B6: A2G6 (VHH)
VHH: QVQLQESGGGLVQAGGSLRLSCAASGRTFSRIAMGWFRQVPGKEREFVAGISGNGGTFYTDSVKGRFTISRDNTKNTVYLQMNSLRPEDTAVYYCAADPNYRATYFPYGMDYYGRGTQVTVSS
As to B6, in assay [4], the “EC50 (nM), TcdA neutralization, T84 cells” value stood at 9.2 nM and the “EC50 (nM), TcdA neutralization, Vero cells” value was less than 1 nM. The binding result with TcdA-GTD (TcdA1-542) is “no binding”.

B7: A1C3 (VHH)
VHH: QVQLQESGGGLVQPGGSLRLSCAASGRIFSIKSMGWYRQAPGKQRELVADITSGGSTNYADSVKGRFTISRDSAWNTVYLQMNSLKPEDTAVYYCRRVVVTPYPDEYEYDYWGQGTQVTVSS
notes: also called Nb A1C3
As for B7, the binding result is recorded as “binds” with TcdA1-1832, “no binding” with TcdA-GTD (TcdA1-542), “binds” with TcdA1-1809 and “binds” in assay [5].

B8: A1F4 (VHH)
VHH: QVQLQESGGGLVQAGGSLRLSCTASGRTFTTYNWAWFCQAPGKEREFVAAITGLTRHTYYADSVKGRFTISRDNAKNTVYLQMNSLKPEDTAVYFCAVSSGGDLNERVNYEYWGQGTQVTVSS
Regarding B8, the “EC50, TcdA neutralization, T84 cells” value in assay [4] was more than 10000 nM. For the same molecule, the binding result with TcdA-GTD (TcdA1-542) is recorded as “no binding”.
